Assays:
His-ASF/SF2 [1] = biological target: T1, His-ASF/SF2 (UniProt Q07955 1-248); experiment: intrinsic tryptophan fluorescence quenching; apparent KD; 100 mM KCl, 20 mM Tris-HCl pH 7.5, room temperature, 100 nM His-ASF/SF2, excitation 280 nm, emission 340 nm; details: protein: recombinant, tags: C-terminal His6
His-ASF/SF2 [2] = biological target: T1, His-ASF/SF2; experiment: intrinsic tryptophan fluorescence quenching; no appKD could be calculated; 100 mM KCl, 20 mM Tris-HCl pH 7.5, room temperature, 100 nM His-ASF/SF2, excitation 280 nm, emission 340 nm; details: protein: recombinant; tags: C-terminal His6; hairpin
His-ASF/SF2 [3] = biological target: T1, His-ASF/SF2; experiment: intrinsic tryptophan fluorescence quenching; no appKD; loss of binding stated; 100 mM KCl, 20 mM Tris-HCl pH 7.5, room temperature, 100 nM His-ASF/SF2, excitation 280 nm, emission 340 nm; details: protein: recombinant; tags: C-terminal His6; hairpin

T1 sequence (Q07955 whole entry): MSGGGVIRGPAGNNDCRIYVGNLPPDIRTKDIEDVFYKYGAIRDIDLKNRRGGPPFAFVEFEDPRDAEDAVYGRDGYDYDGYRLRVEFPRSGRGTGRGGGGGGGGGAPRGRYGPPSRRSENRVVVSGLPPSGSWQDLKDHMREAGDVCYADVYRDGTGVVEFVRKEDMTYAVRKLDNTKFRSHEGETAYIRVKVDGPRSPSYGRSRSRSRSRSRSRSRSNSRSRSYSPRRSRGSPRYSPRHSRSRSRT

| Binder | Kd (His-ASF/SF2 [1]; hairpin) | binding result (His-ASF/SF2 [2]) | further results |
| --- | --- | --- | --- |
| R177G (structured_RNA) RNA: GGAUCUCUUCUCUCCCUCCGCGGUUCUUCCUCGACUCGGCCCGGCUCAUCUCGGCUAGAGGCGGCAGUCCUCAGUACUCUUACUCUUUUCUGUAAAGAGGAGACUGCUGGACUCGCCGCCCGAGGCCGAGCCUGAGCCAAGUGCCGAGCGAGGAGACGCGGGGGGAGGAUCAGCACC | ~870 nM | – | – |
| R199G (structured_RNA) RNA: GGGACUGCUCGAGGAUCUCUUCUCUCCCUCCGCGGUUCUUCCUCGACUCGGCCCGGCUCAUCUCGGCUAGAGGCGGCAGUCCUCAGUACUCUUACUCUUUUCUGUAAAGAGGAGACUGCUGGACUCGCCGCCCGAGGCCGAGCCUGAGCCAAGUGCCGAGCGAGGAGACGCGGGGGGAGGAUCAGCACCCGAGAGGGGAUGU | – | – | Kd (His-ASF/SF2 [1]; rod-like hairpin): ~640 nM |
| R156G (structured_RNA) RNA: CUCCCUCCGCGGUUCUUCCUCGACUCGGCCCGGCUCAUCUCGGCUAGAGGCGGCAGUCCUCAGUACUCUUACUCUUUUCUGUAAAGAGGAGACUGCUGGACUCGCCGCCCGAGGCCGAGCCUGAGCCAAGUGCCGAGCGAGGAGACGCGGGGGGAG | – | no binding | – |
| R161G (structured_RNA) RNA: UCUCUCCCUCCGCGGUUCUUCCUCGACUCGGCCCGGCUCAUCUCGGCUAGAGGCGGCAGUCCUCAGUACUCUUACUCUUUUCUGUAAAGAGGAGACUGCUGGACUCGCCGCCCGAGGCCGAGCCUGAGCCAAGUGCCGAGCGAGGAGACGCGGGGGGAGGA | ~900 nM | – | – |
| R177GΔASF (structured_RNA) RNA: GGAUCUCUUCCGCGGUUCUUCCUCGACUCGGCCCGGCUCAUCUCGGCUAGAGGCGGCAGUCCUCAGUACUCUUACUCUUUUCUGUAAAGAGGAGACUGCUGGACUCGCCGCCCGAGGCCGAGCCUGAGCCAAGUGCCGAGCGAGGAGACGCGGGUCAGCACC | – | – | binding result (His-ASF/SF2 [3]): no binding |
| AGUCCUCAGUACUCUUACUCUUUUCUGUAAAGAGGAGACUGCUGGACU (structured_RNA) [R47G] | – | no binding | – |

From PMC3548785, “Identification of a Binding Site for ASF/SF2 on an RNA Fragment Derived from the Hepatitis delta Virus Genome”
